Biological target: the molecule itself
Assay: X-ray crystal structure (self-association of subunits)
From the text: Native data, to 2.2 Å resolution, were collected at station 9.6 of the S.R.S. Daresbury, from crystals frozen at liquid nitrogen temperatures in a cryo-protecting solution comprising of mother liquor plus 20% glycerol. The structure was solved by multiple isomorphous replacement with anomalous scattering using three heavy atom derivatives. Table 1 details data collection and heavy atom statistics; the HKL package (Otwinowski, Z & Minor, W (1997) Methods Enzymol 276, 307-326), and the CCP4 (Acta Crystallogr D 50 (1994) 760-763) software suite were used for data processing and analysis. Heavy atom positions were derived from difference Patterson and difference Fourier calculations. The SHARP program (Fortelle E. d. -L. & Bricogne, G. (1997) Methods Enzymol 276, 472-494) was used to refine the heavy atom parameters and obtain initial phases, further heavy atom sites were identified from the residual map analysis available in SHARP. […]
The initial model of AMPDA was traced using the QUANTA package (Molecular Simulations Inc) and refined using all data to 2.2 Å with X-PLOR (Briinger, A. T. (1993) X-PLOR Version 3.1 A system for X-ray crystallography and NMR, Yale University Press, New Haven, Conn.). […] The current model has a Rcryst=21.2% and a Rfree=25.4%, calculated on 5% of the data set (Branger, A. T. (1992) Nature 355, 472-475).

B1: rabbit AMP deaminase (AMPDA) catalytic domain, starting at Leu96 (enzyme)
chain: LSHIDEYISLSPTYQTVPDFQRVQITGDYASGVTVEDFEIVCKGLYRALCIREKYMLKSFQRFPKTPSKYLRSIEGTAWKANESSYPVFTPALKKGEDPFRTDNLPENLGYHLKMKDGVVYIYANEAAAGKDEPKPLLYPNMEEFLDDMNFLLALIAQGPVKTYTHRRLKFLSSKFQVHQMLNEMDELKELKNNPHRDFYNCRKVDTHIHAAACMNQKHLLRFIKKSYQVDADRVVYSTKEKNLTLKQLFDKLKLHPYDLTVDSLDVHAGRQTFQRFDKFNDKYNPVGASELRDLYLKTDNYINGEYFATIIKEVGADLVDAKYQHAEPRLSIYGRSPDEWSKLSSWFVRNRIYSSNMTWMIQVPRIYDVFRSKNFLPHFGKMLENVFMPVFEATINPQAHPELSVFLKHITGFDSVDDESKHSGHMFSSKSPKPQEWTLEKNPSYTYYAYYMYANIMVLNSLRKERGMNTFLFRPHCGEVGALTHLMTAFMTADNISHGLNLKKSPVLQYLFFLAQIPIAMSPLSNNSLFLEYAKNPFLDFLQKGLMISLSTDDPMQFHFTKEPLMEEYAIAAQVFKLSTCDMCEVARNSVLQCGISHEEKAKFLGNNYLEEGPIGNDIRKTNVAQIRMAYRYETWCYELNLIAEGLKSTE
notes: Purified from rabbit skeletal muscle; also called rabbit AMPDA; truncated enzyme
binding result: binds
